Here are results for two molecules from PMC5431093, “A HAND to TBX5 Explains the Link Between Thalidomide and Cardiac Diseases” (Scientific Reports, 2017).

Where two headings read alike, the source gives them in different places.

Assay [1] concerns the target HA-tagged TBX5 (murine Tbx5 isoform A) (mouse) (UniProt P70326). The assay is described as follows: co-IP; nuclear extracts of separately transfected HEK293 cells mixed (100 ug each), anti-HA on Protein A/G Dynabeads, 2 h, alone or with DMSO; blot with anti-Flag, re-blot with anti-HA.
Assay [2] has the same target. Described as above. The source holds these as a separate data set.
Assay [3] deals with T1, HA-tagged TBX5 (murine Tbx5 isoform A) (mouse, UniProt P70326 1-518).
T1 sequence (looked up): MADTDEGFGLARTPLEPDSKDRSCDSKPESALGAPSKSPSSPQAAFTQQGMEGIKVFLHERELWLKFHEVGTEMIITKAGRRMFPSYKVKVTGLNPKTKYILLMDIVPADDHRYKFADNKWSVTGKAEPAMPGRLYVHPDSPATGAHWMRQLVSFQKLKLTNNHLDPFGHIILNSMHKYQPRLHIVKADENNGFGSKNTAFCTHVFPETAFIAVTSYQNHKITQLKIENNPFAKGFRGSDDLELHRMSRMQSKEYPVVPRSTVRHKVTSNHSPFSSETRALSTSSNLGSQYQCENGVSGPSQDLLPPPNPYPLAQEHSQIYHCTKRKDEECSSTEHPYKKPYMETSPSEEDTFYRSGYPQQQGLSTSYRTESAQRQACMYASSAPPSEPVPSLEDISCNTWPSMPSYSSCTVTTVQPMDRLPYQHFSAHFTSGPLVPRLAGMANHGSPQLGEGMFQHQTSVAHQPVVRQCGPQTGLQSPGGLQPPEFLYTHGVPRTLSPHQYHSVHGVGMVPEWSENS
The assay is described as follows: cell-based or functional assay.

For the molecule “Flag-tagged HAND2 p.G202V variant (from UniProt Q61039 1-217) (natural protein)”, the percent inhibition of the co-precipitation against wild-type HAND2 in assay [1] was less than 80%; in assay [2], less than 90%.

B1: Flag-tagged HAND2 wild type (natural protein, mouse, UniProt Q61039 1-217, looked up)
chain: MSLVGGFPHHPVVHHEGYPFAAAAAAAAAAAASRCSHEENPYFHGWLIGHPEMSPPDYSMALSYSPEYASGAAGLDHSHYGGVPPGAGPPGLGGPRPVKRRGTANRKERRRTQSINSAFAELRECIPNVPADTKLSKIKTLRLATSYIAYLMDLLAKDDQNGEAEAFKAEIKKTDVKEEKRKKELNEILKSTVSSNDKKTKGRTGWPQHVWALELKQ
B1: the “synergistic activation of the rat NPPA promoter coupled to luciferase in HEK293 cells co-transfected with TBX5 and HAND2” value in assay [3] was not above 22 fold.
